Laboratory results reported in paper PMC4126857.

Tests used:
[1] = target: Drosophila Plk4 cryptic polo box (DmPlk4 CPB), aa 383-601 (Drosophila) (UniProt O97143); assay: MST
[2] = target: ZYG-1 cryptic polo box (CPB), aa 338-564 (C. elegans) (UniProt Q9GT24); assay: MST
ZYG-1 cryptic polo box (CPB), aa 338-564 (C. elegans), sequence (Q9GT24 338-564): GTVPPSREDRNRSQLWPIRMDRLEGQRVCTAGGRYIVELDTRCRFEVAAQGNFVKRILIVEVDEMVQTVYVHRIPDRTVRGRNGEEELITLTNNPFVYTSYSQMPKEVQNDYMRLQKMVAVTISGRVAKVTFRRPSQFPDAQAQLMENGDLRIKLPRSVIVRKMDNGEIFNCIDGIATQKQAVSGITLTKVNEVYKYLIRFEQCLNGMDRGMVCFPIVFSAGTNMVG

Drosophila Plk4 cryptic polo box (DmPlk4 CPB), aa 383-601 (Drosophila), sequence (O97143 383-601): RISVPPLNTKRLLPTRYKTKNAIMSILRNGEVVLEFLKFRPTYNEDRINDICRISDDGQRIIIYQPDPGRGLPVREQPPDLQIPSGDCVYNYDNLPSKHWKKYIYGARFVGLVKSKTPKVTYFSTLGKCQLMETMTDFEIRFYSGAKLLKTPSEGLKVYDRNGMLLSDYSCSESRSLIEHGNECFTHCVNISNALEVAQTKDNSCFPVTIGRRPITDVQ

Substance | Kd [1] | Kd [2]
MmSPD-2 acidic region (MmSPD-2 AR), MST ligand (from UniProt E9Q4Y4 1-2514) (domain or fragment) | 530 nM | 5170 nM
MmAsl acidic region (MmAsl AR), MST ligand (from UniProt A2AUM9 1-1736) (domain or fragment) | 720 nM | 
